Data published in US11547674B2, “Protein-polymer hybrid biomaterials” (The Regents of the University of California, priority 2018, dated 2023).

Columns and labels:
[1] = LDH enzyme kinetics (NADH generation, absorbance at 340 nm); format: biochemical, Bacillus stearothermophilus
Protocol: Enzyme kinetics was measured by absorbance increase at 340 nm in the generation of NADH. All assays were done at 25° C. and in 100 mM triethanolamine hydrochloride buffer following the protocols of Clarke et al. (Clarke, A. R., Wilks, H. M., Barstow, D. A., Atkinson, T., Chia, W. N. & Holbrook, J. J. An Investigation of the Contribution Made by the Carboxylate Group of an Active Site Histidine-Aspartate Couple to Binding and Catalysis in Lactate Dehydrogenase. Biochemistry 27, 1617-1622 (1988)]. Enzyme concentration of 100 nM were mixed with 10 mM NAD+ and 20 mM FBP with varying lactate concentrations for the assay. Km and Kcat were determined using GraphPad Michaelis-Menten curve fit.
Protocols for determining Kcat and Km of LDH were based on previous studies by Clarke et al.^48 Enzyme kinetics were measured by absorbance increases at 340 nm in the generation of NADH. All assays were done at 25° C. and in 100 mM triethanolamine hydrochloride buffer. Enzyme at 100 nM was mixed with 10 mM NAD^+ and 20 mM FBP with varying lactate concentrations. The initial slope of the absorbance vs. time was obtained for a range of lactate concentrations. This initial slope vs. concentration of lactate was plotted in GraphPad Prism and kinetic parameters (Km and kcat) were determined using a non-linear curve fit to the Michaelis-Menten equation.

[2] = Circular dichroism thermostability scan of LDH; format: physicochemical; settings: ˜60° C.
Protocol: The tertiary structure and thermostability of WT and mutant LDH were obtained following the protocol of Molino et al. Jasco 810 spectropolarimeter equipped with Jasco Peltier temperature controller (Jasco, Easton, Md.) were used to measure the far-UV circular dichroism (CD). LDH samples were prepared at a concentration of 0.06 mg/ml in 50 mM potassium phosphate and 100 mM NaCl. Samples were scanned between 200-260 nm at 25 C at scanning speed of 10 nm/min in 0.1 pathlength quartz cells. Thermal unfolding was monitored at ellipticity at 217 nm from 60° C. to 90° C. at a heating rate of 1° C./min.

[3] = 25° C., 100 nM enzyme, 10 mM NAD+, 20 mM FBP, varying lactate

B1: Wt-LDH: thermostable recombinant wild-type lactate dehydrogenase, amino acid sequence from Bacillus stearothermophilus (protein, UniProt P00344 1-317, looked up)
L-lactate dehydrogenase: MKNNGGARVVVIGAGFVGASYVFALMNQGIADEIVLIDANESKAIGDAMDFNHGKVFAPKPVDIWHGDYDDCRDADLVVICAGANQKPGETRLDLVDKNIAIFRSIVESVMASGFQGLFLVATNPVDILTYATWKFSGLPHERVIGSGTILDTARFRFLLGEYFSVAPQNVHAYIIGEHGDTELPVWSQAYIGVMPIRKLVESKGEEAQKDLERIFVNVRDAAYQIIEKKGATYYGIAMGLARVTRAILHNENAILTVSAYLDGLYGERDVYIGVPAVINRNGIREVIEIELNDDEKNRFHHSAATLKSVLARAFTR
catalytic activity of LDH [1]: catalytic | Kcat [1, 3]: 8.8 s⁻¹ | Km [1, 3]: 38.5 mM | denaturation at the NP reaction temperature [2]: does not denature
